In patent publication US10138493:

Columns and labels:
Assay in all cases: cell_activity
synTF ZF 1-3 = details: 1x reporter, HEK293FT; KRAB and HP1 fusions also repress (p284, p286)
synTF ZF 5-7 = details: 1x reporter, HEK293FT; KRAB and HP1 fusions also repress
synTF ZF 9-2 = details: 1x reporter, HEK293FT; KRAB and HP1 fusions also repress
synTF ZF 8-1 = details: 1x reporter, HEK293FT; KRAB and HP1 fusions also repress
synTF ZF 3-5 = details: 1x reporter, HEK293FT; KRAB and HP1 fusions also repress
synTF ZF 7-3 = details: 1x reporter, HEK293FT; KRAB and HP1 fusions also repress
synTF ZF 6-4 = details: 1x reporter, HEK293FT; KRAB and HP1 fusions also repress
synTF ZF 2-6 = details: 1x reporter, HEK293FT; KRAB and HP1 fusions also repress
synTF ZF 4-8 = details: 1x reporter, HEK293FT; KRAB and HP1 fusions also repress

In the case of “CGTCGAAGTCGAAGTCGACC (double strand) [Target 1]”, the activity (fold GFP activation) (synTF ZF 1-3) is reported as over 10.
In the case of “TGAAGCAGTCGACGCCGAAG (double strand) [Target 5]”, the activity (fold GFP activation) (synTF ZF 5-7) is reported as over 10.
“AGACGCAGTATAGGACGACG (double strand) [Target 9]” was tested, and the activity (fold GFP activation) (synTF ZF 9-2) was over 10.
“AGACGCAGTATAGGTCGAAC (double strand) [Target 8]” gave an activity (fold GFP activation) (synTF ZF 8-1) of over 10.
“AGACGTCGAAGTAGCCGTAG (double strand) [Target 3]” was tested, and the activity (fold GFP activation) (synTF ZF 3-5) was over 10.
In the case of “CGACGAGGTCGCATAAGTAG (double strand) [Target 7]”, the activity (fold GFP activation) (synTF ZF 7-3) is reported as over 10.
In the case of “GGACGACGCGGTCTAAGAAG (double strand) [Target 6]”, the activity (fold GFP activation) (synTF ZF 6-4) is reported as over 10.
Work on “GGACGACGTTACGGACGTAC (double strand) [Target 2]” yielded an activity (fold GFP activation) (synTF ZF 2-6) of over 10.
With “GGACGACGCCGATGTAGAAG (double strand) [Target 4]” the activity (fold GFP activation) (synTF ZF 4-8) was over 10.
